Measurements reported in article PMC7962911, “Modular Synthesis of Trifunctional Peptide-oligonucleotide Conjugates via Native Chemical Ligation” (Frontiers in Chemistry, 2021).

Tests used:
[1] = test system: SMA patient-derived fibroblasts; experiment: Confocal microscopy of Cy5 fluorescent uptake; type: cell-based, human; conditions: 1 and 2 µm in OptiMEM without serum, 1 h at 37°C, Cy5 excitation 633 nm
Method: For fluorescent uptake studies, SMA fibroblast cells were plated at a density of 60,000 cells/well of a µ-Slide 4 Well ^Ph+ Glass Bottom chamber slides precoated with poly-L-ornithine. The cells reached 80% confluency after 24 h. They were treated with Cy5-labelled peptide-PNA conjugates made up at a concentration of 1 and 2 µm in OptiMEM without serum for 1 h at 37°C. At 15 min to the end of incubation time, Hoechst (1:1,000 dilution) was added to each well. Cells were washed with PBS and images of cells were taken using the Leica SP8 Resonant Scanning microscope with 63×/1.4 oil objective. The images were acquired at the Cy5-specific excitation of 633 nm and emission of 638–779 nm and Hoechst excitation and emission of 405 nm and 410–585 nm, respectively.

full-length SMN2 mRNA = experiment: SMN2 exon-inclusion assay (RT-qPCR of full-length SMN2 mRNA); type: cell-based, human; conditions: SMA patient-derived fibroblasts (Type-I, GM03813), conjugates 1 and 2 µm in serum-free Opti-MEM for 4 h at 37°C, then growth medium for 20 h, ∆∆Ct vs HPRT1, normalized to untreated = 1, mean ± SEM, N = 3
[2] = concentration range of 20–30 µm; peptides alone and as conjugate to ASOs; ref Neundorf et al., 2009; Shabanpoor et al., 2017; cited from earlier work
From the text: We chose an FDA-approved oligonucleotide sequence (Table 1) targeting survival motor neuron-2 (SMN2) mRNA splice correction as a model ASO (in PNA chemistry) for conjugation to a previously characterized CPP derived from the receptor-binding domain of Apolipoprotein E [ApoE(133–150)] ([Meloni et al., 2020]). In order to synthesize trifunctional conjugates, three different functional moieties were selected for conjugation to the side-chain of […] that was generated during NCL of CPP-ASO. These functional moieties include the FDA-approved oligonucleotide sequence as above but incorporated in ...

Substance: Ac-LRVRLASHLRKLRKRLLR-X-G-C-X-ATTCACTTTCATAATGCTGG | Cy5 [C2, Cy5-labelled ApoE-PNA conjugate, fluorophore on the cysteine thiol of C1]
- uptake in fibroblasts (Cy5 fluorescence) [1]: concentration-dependent increase in uptake

Substance: Ac-LRVRLASHLRKLRKRLLR-X-G-C-X-ATTCACTTTCATAATGCTGG | Mal-ATTCACTTTCATAATGCTGG [C3, trifunctional conjugate of C1 with maleimide-PMO (SMN2) on the cysteine thiol]
- antisense activity (change in the level of full-length SMN2 mRNA) (full-length SMN2 mRNA): higher activity compared to the peptide-PNA (C1) conjugate

Substance: ApoE: previously characterized CPP derived from the receptor-binding domain of Apolipoprotein E (LRVRLASHLRKLRKRLLR; UniProt P02649 151-168, looked up, fragment)
- cytotoxic effect [2]: no significant cytotoxic effect
